The results in this text go back to paper PMC10716122.

B1: Cyclic GMP-AMP synthase (cGAS), wild type, expressed in human cells [human] / TRIM41, HA-tagged [human] (parent)
chain 1: MQPWHGKAMQRASEAGATAPKASARNARGAPMDPTESPAAPEAALPKAGKFGPARKSGSRQKKSAPDTQERPPVRATGARAKKAPQRAQDTQPSDATSAPGAEGLEPPAAREPALSRAGSCRQRGARCSTKPRPPPGPWDVPSPGLPVSAPILVRRDAAPGASKLRAVLEKLKLSRDDISTAAGMVKGVVDHLLLRLKCDSAFRGVGLLNTGSYYEHVKISAPNEFDVMFKLEVPRIQLEEYSNTRAYYFVKFKRNPKENPLSQFLEGEILSASKMLSKFRKIIKEEINDIKDTDVIMKRKRGGSPAVTLLISEKISVDITLALESKSSWPASTQEGLRIQNWLSAKVRKQLRLKPFYLVPKHAKEGNGFQEETWRLSFSHIEKEILNNHGKSKTCCENKEEKCCRKDCLKLMKYLLEQLKERFKDKKHLDKFSSYHVKTAFFHVCTQNPQDSQWDRKDLGLCFDNCVTYFLQCLRTEKLENYFIPEFNLFSSNLIDKRSKEFLTKQIEYERNNEFPVFDEF
chain 2: MAAVAMTPNPVQTLQEEAVCAICLDYFTDPVSIGCGHNFCRVCVTQLWGGEDEEDRDELDREEEEEDGEEEEVEAVGAGAGWDTPMRDEDYEGDMEEEVEEEEEGVFWTSGMSRSSWDNMDYVWEEEDEEEDLDYYLGDMEEEDLRGEDEEDEEEVLEEVEEEDLDPVTPLPPPPAPRRCFTCPQCRKSFPRRSFRPNLQLANMVQVIRQMHPTPGRGSRVTDQGICPKHQEALKLFCEVDEEAICVVCRESRSHKQHSVVPLEEVVQEYKAKLQGHVEPLRKHLEAVQKMKAKEERRVTELKSQMKSELAAVASEFGRLTRFLAEEQAGLERRLREMHEAQLGRAGAAASRLAEQAAQLSRLLAEAQERSQQGGLRLLQDIKETFNRCEEVQLQPPEVWSPDPCQPHSHDFLTDAIVRKMSRMFCQAARVDLTLDPDTAHPALMLSPDRRGVRLAERRQEVADHPKRFSADCCVLGAQGFRSGRHYWEVEVGGRRGWAVGAARESTHHKEKVGPGGSSVGSGDASSSRHHHRRRRLHLPQQPLLQREVWCVGTNGKRYQAQSSTEQTLLSPSEKPRRFGVYLDYEAGRLGFYNAETLAHVHTFSAAFLGERVFPFFRVLSKGTRIKLCP

The variants in the assay derive from B1. Put plainly: co-IP (IP: GFP, blot cGAS-HA), band intensity printed under blot. Conditions: with TRIM41, HA-tagged [human]; HEK293T cells; TRIM41-GFP co-expressed; 100 μg/mL etoposide for 4 h; parent: 1.
Regarding chain 1 S305A, the ratio to parent came to 0.51.

Turning to chain 1 S120A, the ratio to parent was determined as 0.68.
